# Where two headings read alike, the source gives them in different places.
# Key:
# [1] = In vivo SPECT/CT imaging, VOI quantification; conditions: male, Balb/c nu/nu, mouse, tumor and kidneys (in vivo VOIs), iv, total radioactivity; from SPECT VOI %IA/mL, 2 h p.i., i.v., non-blocked, n = 3; read-out: Tumor-to-kidney ratio (SPECT)
# Procedure: Seven-week-old male Balb/c nu/nu-specific and opportunistic pathogen-free (SOPF) mice (Janvier Labs, Le Genest-Saint-Isle, France) were housed in individually ventilated cages, with 4 mice per cage. Upon arrival, mice were acclimated for 1 week, with access to food and water ad libitum. […]
# Mice (n = 3 per probe) were intravenously injected in the tail vein with 200 µL of Kolliphor® HS 15 (Merck, Haarlerbergweg, The Netherlands) in PBS (0.06 mg/mL) containing [^111In]In-12 (13.40 ± 0.76 MBq, ~670 pmol) or [^111In]In-15 (17.50 ± 1.78 MBq, ~875 pmol). […] The CT and registered, attenuation-corrected SPECT images were analyzed using PMOD (PMOD 3.9, Zurich, Switzerland) and quantification was performed by placing volumes of interest (VOIs) around the tumors and kidneys. An Eppendorf tube filled with a solution of indium-111 of a known activity was measured to determine the calibration factor. The total activity measured in the VOI was divided by the volume of all VOI pixel values and multiplied by the calibration factor to obtain the percentage of injected activity per volume unit (%IA/mL).
# [2] = tested on: PC-3-xenograft Balb/c nu/nu mice; assay: Ex vivo optical (fluorescence, IVIS) imaging of organs; format: in vivo, mouse; conditions: ex vivo after dissection, ex/em 640/680 nm
# Procedure: (§1) Seven-week-old male Balb/c nu/nu-specific and opportunistic pathogen-free (SOPF) mice (Janvier Labs, Le Genest-Saint-Isle, France) were housed in individually ventilated cages, with 4 mice per cage. Upon arrival, mice were acclimated for 1 week, with access to food and water ad libitum. Mice were subcutaneously inoculated on the right shoulder with PC-3 cells (5 × 10^6 cells suspended in 100 µL of 1/3 Matrigel (Corning Inc., Corning, NY, USA) and 2/3 Hank’s balanced salt solution (Gibco). PC-3 xenografts were allowed to grow for 3 weeks. Tumor sizes were 391 ± 173 mm^3 at the start of the studies. All animal experiments were approved by the Animal Welfare Committee of the Erasmus MC and were conducted in agreement with institutional guidelines (license number: AVD101002017867, 28 September 2017).
# (§2) Before gamma counter measurements, the tumor half, pancreas, kidneys, lungs, small intestine, large intestine, liver, muscle, and bone were placed in two petri dishes and ex vivo optical imaging was performed with the IVIS Spectrum system (Perkin Elmer, Waltham, MA, USA) using the following settings for all measurements: FOV 12.6 cm, medium binning, f2, 0.5 s exposure with an excitation/emission filter of 640 nm/680 nm. Living Image version 4.5.2 software (Perkin Elmer) was used to perform data analysis by drawing a region of interest around the organ/tissue to quantify the radiant efficiency {(photons/second/cm^2/steradian)/(μW/cm^2)}.
# [3] = as above; format: in vivo, mouse; conditions: male, Balb/c nu/nu, mouse, iv, ex vivo radiant efficiency
# Procedure: as §1, §2
# [4] = Distribution coefficient (LogD7.4), shake-flask method; format: physicochemical; conditions: n-octanol/PBS pH 7.4, n = 3; read-out: Log D7.4
# Procedure: Distribution coefficients (LogD7.4) for the ^111In-labeled compounds were determined by a shake-flask method. The experiments were performed in triplicate for each radioligand. A sample containing the radioligand (0.5–2.0 MBq) was dissolved in 1 mL solution of phosphate-buffered saline (0.01 M, pH 7.4) and n-octanol (v:v = 1:1). The vials were vortexed vigorously and then centrifuged at 10,000 rpm for 3 min, for phase separation. Samples (10 μL) of each phase were taken out and analyzed using a gamma counter. LogD7.4 values were calculated, using the following equation: LogD7.4 = log {(counts in n-octanol phase)/(counts in PBS phase)}.
# [5] = blocked with 150 nmol unlabeled NeoB, n = 1
# [6] = non-blocked, n = 3, listed as [111In]In‐12
compound,measurement,setting,value
"CC(C)CC(CC(C)C)NC(=O)[C@H](Cc1c[nH]cn1)NC(=O)CNC(=O)[C@@H](NC(=O)[C@H](C)NC(=O)[C@H](Cc1c[nH]c2ccccc12)NC(=O)[C@H](CCC(N)=O)NC(=O)[C@@H](Cc1ccccc1)NC(=O)COCC(=O)Nc1ccc(CNC(=O)[C@H](CCCCNC(=O)CCOCCOCCOCCOCCNC(=O)OC2CCCC3C=NN=C(c4ccc(CNC(=O)CCCCC[N+]5=C(/C=C/C=C/C=C6N(C)c7ccc(S(=O)(=O)O)cc7C6(C)C)C(C)(C)c6cc(S(=O)(=O)[O-])ccc65)cc4)C3CC2)NC(=O)CN2CCN(CC(=O)O)CCN(CC(=O)O)CCN(CC(=O)O)CC2)cc1)C(C)C (stereo partly shown) [[^111In]In-12, metal not drawn]",tissue to tissue ratio at 2 h,[1],0.47 ± 0.05
same,"Fluorescent signal, bone (average radiant efficiency)",[2]; [5],0.32 × 10^8 p/sec/cm^2/sr per µW/cm
same,"Fluorescent signal, kidneys (average radiant efficiency)",[2]; [5],5.42 × 10^8 p/sec/cm^2/sr per µW/cm
same,"Fluorescent signal, large intestine (average radiant efficiency)",[2]; [5],0.47 × 10^8 p/sec/cm^2/sr per µW/cm
same,"Fluorescent signal, liver (average radiant efficiency)",[2]; [5],2.42 × 10^8 p/sec/cm^2/sr per µW/cm
same,"Fluorescent signal, lungs (average radiant efficiency)",[2]; [5],2.88 × 10^8 p/sec/cm^2/sr per µW/cm
same,"Fluorescent signal, muscle (average radiant efficiency)",[2]; [5],0.76 × 10^8 p/sec/cm^2/sr per µW/cm
same,"Fluorescent signal, pancreas (average radiant efficiency)",[2]; [5],0.66 × 10^8 p/sec/cm^2/sr per µW/cm
same,"Fluorescent signal, small intestine (average radiant efficiency)",[2]; [5],0.44 × 10^8 p/sec/cm^2/sr per µW/cm
same,"Fluorescent signal, tumor (average radiant efficiency)",[2]; [5],1.67 × 10^8 p/sec/cm^2/sr per µW/cm
same,"Fluorescent signal, bone (average radiant efficiency)","[2]; non-blocked, n = 3",0.40 ± 0.11 × 10^8 p/sec/cm^2/sr per µW/cm
same,"Fluorescent signal, kidneys (average radiant efficiency)","[2]; non-blocked, n = 3",9.41 ± 0.92 × 10^8 p/sec/cm^2/sr per µW/cm^2
same,"Fluorescent signal, large intestine (average radiant efficiency)","[2]; non-blocked, n = 3",0.68 ± 0.19 × 10^8 p/sec/cm^2/sr per µW/cm
same,"Fluorescent signal, liver (average radiant efficiency)","[2]; non-blocked, n = 3",2.20 ± 0.09 × 10^8 p/sec/cm^2/sr per µW/cm
same,"Fluorescent signal, lungs (average radiant efficiency)","[2]; non-blocked, n = 3",1.93 ± 0.18 × 10^8 p/sec/cm^2/sr per µW/cm
same,"Fluorescent signal, muscle (average radiant efficiency)","[2]; non-blocked, n = 3",0.78 ± 0.08 × 10^8 p/sec/cm^2/sr per µW/cm
same,"Fluorescent signal, pancreas (average radiant efficiency)","[2]; non-blocked, n = 3",6.32 ± 0.50 × 10^8 p/sec/cm^2/sr per µW/cm^2
same,"Fluorescent signal, small intestine (average radiant efficiency)","[2]; non-blocked, n = 3",0.85 ± 0.30 × 10^8 p/sec/cm^2/sr per µW/cm
same,"Fluorescent signal, tumor (average radiant efficiency)","[2]; non-blocked, n = 3",4.31 ± 1.03 × 10^8 p/sec/cm^2/sr per µW/cm^2
same,"Fluorescent signal, kidneys (average radiant efficiency)",[2]; [6],9.41 ± 0.92 × 10^8 p/sec/cm^2/sr per µW/cm
same,"Fluorescent signal, pancreas (average radiant efficiency)",[2]; [6],6.32 ± 0.50 × 10^8 p/sec/cm^2/sr per µW/cm
same,"Fluorescent signal, tumor (average radiant efficiency)",[2]; [6],4.31 ± 1.03 × 10^8 p/sec/cm^2/sr per µW/cm
same,tissue to tissue ratio,"[3]; tumor and kidney, blocked with 150 nmol unlabeled NeoB, n = 1, read-out: Tumor-to-kidney ratio (fluorescence)",0.31
same,tissue to tissue ratio,"[3]; tumor and kidney, non-blocked, n = 3, read-out: Tumor-to-kidney ratio (fluorescence)",0.47 ± 0.16
same,tissue to tissue ratio,"[3]; tumor and liver, blocked with 150 nmol unlabeled NeoB, n = 1, read-out: Tumor-to-liver ratio (fluorescence)",0.69
same,tissue to tissue ratio,"[3]; tumor and liver, non-blocked, n = 3, read-out: Tumor-to-liver ratio (fluorescence)",1.96 ± 0.47
same,tissue to tissue ratio,"[3]; tumor and muscle, blocked with 150 nmol unlabeled NeoB, n = 1, read-out: Tumor-to-muscle ratio (fluorescence)",2.21
same,tissue to tissue ratio,"[3]; tumor and muscle, non-blocked, n = 3, read-out: Tumor-to-muscle ratio (fluorescence)",5.69 ± 1.94
same,tissue to tissue ratio,"[3]; tumor and pancreas, blocked with 150 nmol unlabeled NeoB, n = 1, read-out: Tumor-to-pancreas ratio (fluorescence)",2.54
same,tissue to tissue ratio,"[3]; tumor and pancreas, non-blocked, n = 3, read-out: Tumor-to-pancreas ratio (fluorescence)",0.69 ± 0.22
same,logD,[4],-1.66 ± 0.01
